From publication PMC8501021, “Nuclear transporter Importin-13 plays a key role in the oxidative stress transcriptional response” (Nature Communications, 2021) come the findings set out here.

Experiment [1] addresses T1, GFP-KLF4 (eGFP fused to full-length mouse Kruppel like factor 4) (mouse, UniProt Q60793 1-483).
T1 construct: Kruppel like factor 4 (KLF4), mouse, full length; inserted in-frame at BamHI and HindIII of pEGFP-C1, C-terminal to eGFP; also called GFP-tagged KLF4; source: HeLa, transfected (pEGFP-C1 construct), in lysate; not shown: eGFP, N-terminal, kept
As to the kind of experiment: co-IP; HeLa cells co-expressing GFP, GFP-KLF4 or GFP-SP1 with DSRED-IPO13; treated with or without 125 uM H2O2 for 1 h before lysis; lysates with or without GTPgammaS (1.7 mM, 20 min on ice); precipitated with GFP-Trap resin; Western blot with anti-GFP and anti-IPO13. The note with it: partners not purified.

The target in experiment [2] is T2, GFP-SP1 (GFP fused to specificity protein 1) (UniProt P08047 1-785).
T2 construct: Specificity protein 1 (SP1); plasmid from Jan-Jong Hung (National Cheng Kung University, Taiwan); Construct was a gift; also called GFP-tagged SP1; source: HeLa, transfected, in lysate
T2 sequence (P08047 whole entry, the tested form may be a part): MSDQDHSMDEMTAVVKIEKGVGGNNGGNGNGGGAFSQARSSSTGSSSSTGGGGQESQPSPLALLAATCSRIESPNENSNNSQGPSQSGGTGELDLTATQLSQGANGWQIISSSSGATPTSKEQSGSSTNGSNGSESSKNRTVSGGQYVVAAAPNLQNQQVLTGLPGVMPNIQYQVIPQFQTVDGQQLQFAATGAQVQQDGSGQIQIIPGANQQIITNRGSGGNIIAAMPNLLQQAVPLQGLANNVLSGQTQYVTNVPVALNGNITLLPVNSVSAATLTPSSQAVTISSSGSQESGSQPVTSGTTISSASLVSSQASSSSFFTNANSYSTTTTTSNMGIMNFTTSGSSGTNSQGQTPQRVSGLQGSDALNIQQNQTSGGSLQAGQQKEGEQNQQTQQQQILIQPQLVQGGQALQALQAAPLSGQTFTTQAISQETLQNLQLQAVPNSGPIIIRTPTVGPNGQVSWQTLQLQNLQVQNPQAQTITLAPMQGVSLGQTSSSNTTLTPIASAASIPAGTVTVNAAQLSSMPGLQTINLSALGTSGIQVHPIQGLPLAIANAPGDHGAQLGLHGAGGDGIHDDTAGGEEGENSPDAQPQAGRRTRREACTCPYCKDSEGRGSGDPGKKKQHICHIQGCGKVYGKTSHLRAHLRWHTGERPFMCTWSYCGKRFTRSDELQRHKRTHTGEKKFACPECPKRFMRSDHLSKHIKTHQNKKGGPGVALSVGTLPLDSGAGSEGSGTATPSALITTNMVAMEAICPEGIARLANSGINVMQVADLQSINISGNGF
The description is as above. The note with it: partners not purified.

T1 sequence (Q60793 whole entry, the tested form may be a part): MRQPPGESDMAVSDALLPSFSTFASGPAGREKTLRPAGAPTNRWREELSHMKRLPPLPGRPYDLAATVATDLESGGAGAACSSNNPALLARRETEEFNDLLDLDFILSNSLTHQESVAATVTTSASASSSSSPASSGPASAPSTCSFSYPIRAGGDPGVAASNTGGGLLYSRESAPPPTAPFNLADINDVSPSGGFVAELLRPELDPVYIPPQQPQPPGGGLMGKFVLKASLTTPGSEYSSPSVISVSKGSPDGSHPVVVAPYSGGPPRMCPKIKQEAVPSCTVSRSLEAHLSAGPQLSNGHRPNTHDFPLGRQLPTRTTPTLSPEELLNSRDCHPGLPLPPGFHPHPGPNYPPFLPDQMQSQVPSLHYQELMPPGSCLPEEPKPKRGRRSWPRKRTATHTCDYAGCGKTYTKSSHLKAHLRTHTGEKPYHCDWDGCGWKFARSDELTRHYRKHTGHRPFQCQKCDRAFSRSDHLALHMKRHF

B1: DSRED-IPO13 (Importin-13 fused to the DsRed2 fluorescent protein) (natural protein, UniProt O94829 1-963, looked up)
chain: MERREEQPGAAGAGAAPALDFTVENVEKALHQLYYDPNIENKNLAQKWLMQAQVSPQAWHFSWQLLQPDKVPEIQYFGASALHIKISRYWSDIPTDQYESLKAQLFTQITRFASGSKIVLTRLCVALASLALSMMPDAWPCAVADMVRLFQAEDSPVDGQGRCLALLELLTVLPEEFQTSRLPQYRKGLVRTSLAVECGAVFPLLEQLLQQPSSPSCVRQKVLKCFSSWVQLEVPLQDCEALIQAAFAALQDSELFDSSVEAIVNAISQPDAQRYVNTLLKLIPLVLGLQEQLRQAVQNGDMETSHGICRIAVALGENHSRALLDQVEHWQSFLALVNMIMFCTGIPGHYPVNETTSSLTLTFWYTLQDDILSFEAEKQAVYQQVYRPVYFQLVDVLLHKAQFPSDEEYGFWSSDEKEQFRIYRVDISDTLMYVYEMLGAELLSNLYDKLGRLLTSSEEPYSWQHTEALLYGFQSIAETIDVNYSDVVPGLIGLIPRISISNVQLADTVMFTIGALSEWLADHPVMINSVLPLVLHALGNPELSVSSVSTLKKICRECKYDLPPYAANIVAVSQDVLMKQIHKTSQCMWLMQALGFLLSALQVEEILKNLHSLISPYIQQLEKLAEEIPNPSNKLAIVHILGLLSNLFTTLDISHHEDDHEGPELRKLPVPQGPNPVVVVLQQVFQLIQKVLSKWLNDAQVVEAVCAIFEKSVKTLLDDFAPMVPQLCEMLGRMYSTIPQASALDLTRQLVHIFAHEPAHFPPIEALFLLVTSVTLTLFQQGPRDHPDIVDSFMQLLAQALKRKPDLFLCERLDVKAVFQCAVLALKFPEAPTVKASCGFFTELLPRCGEVESVGKVVQEDGRMLLIAVLEAIGGQASRSLMDCFADILFALNKHCFSLLSMWIKEALQPPGFPSARLSPEQKDTFSQQILRERVNKRRVKEMVKEFTLLCRGLHGTDYTADY
notes: Importin-13 (IPO13); PCR generated IPO13 insert put into pDsRed2-C1 at EcoRI and SmaI; also called dsRed2-IPO13; DSRED-tagged IPO13; source: HeLa, transfected (pDsRed2-fused IPO13), in lysate
With B1, the “fold increase in co-precipitation with GTPgammaS against no addition, H2O2 treated cells” value in experiment [1] and in experiment [2] was ~2 fold in each case.
